molecular target: FcεRI-bound IgE (human IgE loaded on CHO 3D10 cells expressing FcεRI alpha chain) (human) (UniProt P01854); test: FACS on IgE-loaded CHO 3D10 cells (FIG. 4)
Sequence (P01854 whole entry, chain 1 of 2): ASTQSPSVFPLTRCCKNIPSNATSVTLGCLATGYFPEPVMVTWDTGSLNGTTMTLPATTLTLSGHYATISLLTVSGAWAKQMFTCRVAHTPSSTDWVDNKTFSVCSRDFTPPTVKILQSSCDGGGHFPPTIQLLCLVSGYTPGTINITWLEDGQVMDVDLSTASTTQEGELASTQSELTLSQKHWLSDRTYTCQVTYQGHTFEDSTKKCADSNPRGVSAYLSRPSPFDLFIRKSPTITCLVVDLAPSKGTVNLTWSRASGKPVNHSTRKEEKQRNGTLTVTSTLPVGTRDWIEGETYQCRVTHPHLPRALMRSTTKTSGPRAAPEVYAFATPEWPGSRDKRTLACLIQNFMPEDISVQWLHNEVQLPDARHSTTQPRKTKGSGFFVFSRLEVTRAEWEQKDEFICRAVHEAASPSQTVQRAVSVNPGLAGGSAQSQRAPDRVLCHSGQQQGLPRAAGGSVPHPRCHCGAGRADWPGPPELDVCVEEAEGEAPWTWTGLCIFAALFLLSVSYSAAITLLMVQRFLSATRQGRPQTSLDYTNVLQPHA
Sequence (P12319 26-257, chain 2 of 2, further chain): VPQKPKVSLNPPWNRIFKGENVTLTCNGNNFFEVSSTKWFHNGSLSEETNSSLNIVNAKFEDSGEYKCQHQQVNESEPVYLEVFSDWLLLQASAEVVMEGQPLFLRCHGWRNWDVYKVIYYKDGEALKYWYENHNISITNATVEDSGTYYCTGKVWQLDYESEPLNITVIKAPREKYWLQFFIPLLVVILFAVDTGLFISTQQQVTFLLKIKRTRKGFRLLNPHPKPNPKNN

Row | Substance | mean channel fluorescence at 0.1 µg/ml (mean channel fluorescence)
1 | MOPC21 (murine IgG1 control antibody) | 7.3
2 | humanized mAb 4D5 (human IgG1 control antibody) | 4.7
3 | murine anti-human IgE monoclonal antibody MaE11 | 6.4
